Patent US12467929

What was measured:
[1] = target: recombinant UBE3A protein (Homo sapiens (Human)) (UniProt Q05086); assay: 3-step Simoa; capture MS 2F6; UBE3A 0.01 ng/ml
[2] = target: recombinant UBE3A protein (Homo sapiens (Human)) (UniProt Q05086); assay: 3-step Simoa; capture MS 3E5; UBE3A 10 ng/ml
[3] = target: recombinant UBE3A protein (Homo sapiens (Human)) (UniProt Q05086); assay: 2-step Simoa; capture MS 3E5; UBE3A 1 ng/ml
[4] = target: recombinant UBE3A protein (Homo sapiens (Human)) (UniProt Q05086); assay: 2-step Simoa; capture MS 3E5; UBE3A 10 ng/ml
[5] = target: recombinant UBE3A protein (Homo sapiens (Human)) (UniProt Q05086); assay: 3-step Simoa; capture MS 3E5; UBE3A 0.1 ng/ml
[6] = target: recombinant UBE3A protein (Homo sapiens (Human)) (UniProt Q05086); assay: 2-step Simoa; capture GTX; UBE3A 0.1 ng/ml
[7] = target: recombinant UBE3A protein (Homo sapiens (Human)) (UniProt Q05086); assay: 3-step Simoa; capture MS 3E5; UBE3A 1 ng/ml
[8] = target: recombinant UBE3A protein (Homo sapiens (Human)) (UniProt Q05086); assay: 2-step Simoa; capture MS 3E5; UBE3A 0.1 ng/ml
[9] = target: recombinant UBE3A protein (Homo sapiens (Human)) (UniProt Q05086); assay: 2-step Simoa; capture MS 3E5; UBE3A 0.01 ng/ml
[10] = target: recombinant UBE3A protein (Homo sapiens (Human)) (UniProt Q05086); assay: 3-step Simoa; capture MS 3E5; UBE3A 0.01 ng/ml
[11] = target: recombinant UBE3A protein (Homo sapiens (Human)) (UniProt Q05086); assay: Simoa head-to-head, Table 10; capture GTX; UBE3A 20.0 ng/ml
[12] = target: recombinant UBE3A protein (Homo sapiens (Human)) (UniProt Q05086); assay: Simoa head-to-head, Table 10; capture GTX; UBE3A 4.00 ng/ml
[13] = target: recombinant UBE3A protein (Homo sapiens (Human)) (UniProt Q05086); assay: Simoa head-to-head, Table 10; capture GTX; UBE3A 0.032 ng/ml
[14] = target: recombinant UBE3A protein (Homo sapiens (Human)) (UniProt Q05086); assay: Simoa head-to-head, Table 10; capture GTX; UBE3A 100 ng/ml
[15] = target: recombinant UBE3A protein (Homo sapiens (Human)) (UniProt Q05086); assay: Simoa head-to-head, Table 10; capture GTX; UBE3A 500 ng/ml
[16] = target: recombinant UBE3A protein (Homo sapiens (Human)) (UniProt Q05086); assay: Simoa head-to-head, Table 10; capture GTX; UBE3A 0.80 ng/ml
[17] = target: recombinant UBE3A protein (Homo sapiens (Human)) (UniProt Q05086); assay: Simoa; capture GTX; SBG 150 pm; UBE3A 0.160 ng/ml
[18] = target: recombinant UBE3A protein (Homo sapiens (Human)) (UniProt Q05086); assay: Simoa; capture GTX; SBG 100 pm; UBE3A 0.00128 ng/ml
[19] = target: recombinant UBE3A protein (Homo sapiens (Human)) (UniProt Q05086); assay: Simoa; capture GTX, no helper beads; 3E5 0.2 ug/ml; UBE3A 0.00640 ng/ml
[20] = target: recombinant UBE3A protein (Homo sapiens (Human)) (UniProt Q05086); assay: Simoa head-to-head, Table 11; capture MS 2F6; UBE3A 500 ng/ml
[21] = target: recombinant UBE3A protein (Homo sapiens (Human)) (UniProt Q05086); assay: Simoa; capture GTX + helper beads; 3E5 0.4 ug/ml; UBE3A 20.0 ng/ml
[22] = target: recombinant UBE3A protein (Homo sapiens (Human)) (UniProt Q05086); assay: Simoa head-to-head, Table 11; capture MS 2F6; UBE3A 20.0 ng/ml

UniProt Q05086, sequence (Q05086 whole entry): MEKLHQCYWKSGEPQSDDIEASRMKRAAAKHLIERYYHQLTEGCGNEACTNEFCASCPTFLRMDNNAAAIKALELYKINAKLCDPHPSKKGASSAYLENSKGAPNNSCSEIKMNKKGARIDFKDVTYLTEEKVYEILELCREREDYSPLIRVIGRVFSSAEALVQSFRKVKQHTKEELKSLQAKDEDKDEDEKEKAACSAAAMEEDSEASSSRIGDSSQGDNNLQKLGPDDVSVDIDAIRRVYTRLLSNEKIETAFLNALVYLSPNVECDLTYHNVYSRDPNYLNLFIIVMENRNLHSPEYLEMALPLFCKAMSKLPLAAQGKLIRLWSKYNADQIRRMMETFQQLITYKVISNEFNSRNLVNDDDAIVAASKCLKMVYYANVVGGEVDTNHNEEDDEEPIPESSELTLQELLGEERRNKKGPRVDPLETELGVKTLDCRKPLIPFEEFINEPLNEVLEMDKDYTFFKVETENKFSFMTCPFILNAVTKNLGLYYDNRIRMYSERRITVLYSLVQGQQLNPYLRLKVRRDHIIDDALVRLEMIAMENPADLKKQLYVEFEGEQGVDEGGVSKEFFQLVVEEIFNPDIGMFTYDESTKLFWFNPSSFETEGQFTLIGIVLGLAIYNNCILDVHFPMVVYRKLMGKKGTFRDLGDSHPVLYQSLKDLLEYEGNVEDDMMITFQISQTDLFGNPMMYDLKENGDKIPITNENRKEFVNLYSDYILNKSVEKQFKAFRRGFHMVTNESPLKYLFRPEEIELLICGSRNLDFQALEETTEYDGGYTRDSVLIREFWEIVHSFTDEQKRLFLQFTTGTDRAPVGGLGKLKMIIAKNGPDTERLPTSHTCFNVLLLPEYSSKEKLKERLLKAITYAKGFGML

Substance: GTX101092 (GeneTex) (antibody)
- AEB1 [1]: 0.0162
- AEB2 [1]: 0.0191
- Ave AEB [1]: 0.0176
- Signal to Background [1]: 0.94
- AEB1 [2]: 0.151
- AEB2 [2]: 0.145
- Ave AEB [2]: 0.148
- Signal to Background [2]: 2.77
- AEB1 [3]: 0.159
- AEB2 [3]: 0.165
- Ave AEB [3]: 0.162
- Signal to Background [3]: 1.15
- AEB1 [4]: 0.407
- AEB2 [4]: 0.385
- Ave AEB [4]: 0.396
- Signal to Background [4]: 2.8
- AEB1 [5]: 0.0546
- AEB2 [5]: 0.06
- Ave AEB [5]: 0.0573
- Signal to Background [5]: 1.07
- AEB1 [6]: 0.0525
- AEB2 [6]: 0.0487
- Ave AEB [6]: 0.0506
- Signal to Background [6]: 1
- AEB1 [7]: 0.0655
- AEB2 [7]: 0.0625
- Ave AEB [7]: 0.064
- Signal to Background [7]: 1.19
- AEB1 [8]: 0.161
- AEB2 [8]: 0.149
- Ave AEB [8]: 0.155
- Signal to Background [8]: 1.1
- AEB1 [9]: 0.129
- AEB2 [9]: 0.134
- Ave AEB [9]: 0.132
- Signal to Background [9]: 0.931
- AEB1 [10]: 0.0515
- AEB2 [10]: 0.05
- Ave AEB [10]: 0.0508
- Signal to Background [10]: 0.946

Substance: NB500-240 (Novus) (antibody)
- AEB1 [1]: 0.0086
- AEB2 [1]: 0.0101
- Ave AEB [1]: 0.0093
- Signal to Background [1]: 1.07
- AEB1 [2]: 0.0157
- AEB2 [2]: 0.0129
- Ave AEB [2]: 0.0143
- Signal to Background [2]: 4.29
- AEB1 [11]: 0.132
- AEB2 [11]: 0.131
- Ave AEB [11]: 0.132
- Signal to Background [11]: 63.2
- AEB1 [3]: 0.0227
- AEB2 [3]: 0.0226
- Ave AEB [3]: 0.0226
- Signal to Background [3]: 3.04
- AEB1 [12]: 0.0402
- AEB2 [12]: 0.0398
- Ave AEB [12]: 0.04
- Signal to Background [12]: 19.2
- AEB1 [13]: 0.0035
- AEB2 [13]: 0.0027
- Ave AEB [13]: 0.0031
- Signal to Background [13]: 1.49
- AEB1 [4]: 0.15
- AEB2 [4]: 0.14
- Ave AEB [4]: 0.145
- Signal to Background [4]: 19.5
- AEB1 [5]: 0.0026
- AEB2 [5]: 0.0025
- Ave AEB [5]: 0.0025
- Signal to Background [5]: 0.765
- AEB1 [6]: 0.0089
- AEB2 [6]: 0.0108
- Ave AEB [6]: 0.0098
- Signal to Background [6]: 1.33
- AEB1 [14]: 0.293
- AEB2 [14]: 0.288
- Ave AEB [14]: 0.291
- Signal to Background [14]: 140
- AEB1 [15]: 0.282
- AEB2 [15]: 0.309
- Ave AEB [15]: 0.296
- Signal to Background [15]: 142
- AEB1 [7]: 0.004
- AEB2 [7]: 0.0047
- Ave AEB [7]: 0.0044
- Signal to Background [7]: 1.31
- AEB1 [8]: 0.009
- AEB2 [8]: 0.0091
- Ave AEB [8]: 0.009
- Signal to Background [8]: 1.21
- AEB1 [16]: 0.0085
- AEB2 [16]: 0.0124
- Ave AEB [16]: 0.0105
- Signal to Background [16]: 5.03
- AEB1 [9]: 0.0065
- AEB2 [9]: 0.007
- Ave AEB [9]: 0.0068
- Signal to Background [9]: 0.908
- AEB1 [10]: 0.0038
- AEB2 [10]: 0.0032
- Ave AEB [10]: 0.0035
- Signal to Background [10]: 1.05

Substance: anti-UBE3A antibody 3E5 (SAB1404508-100 ug, Millipore-Sigma)
- AEB1 [17]: 0.0773
- AEB2 [17]: 0.0769
- Average AEB [17]: 0.0771
- Signal to Background [17]: 5.82
- AEB1 [18]: 0.0082
- AEB2 [18]: 0.0092
- AEB3 [18]: 0.0096
- Average AEB [18]: 0.009
- Signal to Background [18]: 1.07
- AEB1 [11]: 2.26
- AEB2 [11]: 2.45
- Ave AEB [11]: 2.35
- Signal to Background [11]: 104
- AEB1 [12]: 0.361
- AEB2 [12]: 0.362
- Ave AEB [12]: 0.361
- Signal to Background [12]: 15.9
- AEB1 [13]: 0.031
- AEB2 [13]: 0.0329
- Ave AEB [13]: 0.0319
- Signal to Background [13]: 1.41
- AEB1 [14]: 4.3
- AEB2 [14]: 4.08
- Ave AEB [14]: 4.19
- Signal to Background [14]: 184
- AEB1 [15]: 12.3
- AEB2 [15]: 11.6
- Ave AEB [15]: 11.9
- Signal to Background [15]: 526
- AEB2 [19]: 0.012
- Average AEB [19]: 0.012
- Signal to Background [19]: 1.24
- AEB1 [20]: 8.9
- AEB2 [20]: 8.6
- Ave AEB [20]: 8.75
- Signal to Background [20]: 2310
- AEB1 [16]: 0.144
- AEB2 [16]: 0.14
- Ave AEB [16]: 0.142
- Signal to Background [16]: 6.24
- AEB1 [21]: 4.41
- AEB2 [21]: 6.45
- Average AEB [21]: 5.43
- Signal to Background [21]: 278
- AEB1 [22]: 0.352
- AEB2 [22]: 0.348
- Ave AEB [22]: 0.35
- Signal to Background [22]: 92.5
